Assay results reported in US20230054718A1 (HIFIBIO HK, published 2023).
Changes are numbered by the printed parent chain. Several values for one entry are separate records, joined by “and”; a condition that tells them apart may be missing. Identical values can stand only once. Values belong to the binder of their own block, whether it stands above or below them.

Experiments:
[1] = target: T1, Gal9 (Galectin-9) as used in Examples 3 to 5 (Homo sapiens (Human), UniProt O00182 1-323); assay: CD44 blocking Assay: binding (%) of Gal9 to CD44 over antibody concentration; ambiguous fit marked '~', R2 printed 0,9183; no unit in the table, nM from the axis 'Antibody [nM]'
T1 sequence (O00182 other isoform, or with tags, fused parts or gaps limits assumed): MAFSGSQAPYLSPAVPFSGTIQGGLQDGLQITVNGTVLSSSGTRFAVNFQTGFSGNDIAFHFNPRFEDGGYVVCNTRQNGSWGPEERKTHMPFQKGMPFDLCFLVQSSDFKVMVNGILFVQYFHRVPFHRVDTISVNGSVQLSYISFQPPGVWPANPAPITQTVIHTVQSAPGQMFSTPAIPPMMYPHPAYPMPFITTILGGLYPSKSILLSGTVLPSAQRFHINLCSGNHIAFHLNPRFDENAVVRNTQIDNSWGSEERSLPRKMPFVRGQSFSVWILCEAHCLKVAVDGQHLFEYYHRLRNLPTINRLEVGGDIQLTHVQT

[2] = target: T2, recombinant human Galectin-9 (human, UniProt O00182-2 1-323, limits assumed); assay: binding to recombinant human Gal-9, OD read-out over antibody concentration (nM); table under the curves
T2 construct: also called hGal9M; human Gal9
T2 sequence (O00182 other isoform, or with tags, fused parts or gaps limits assumed): as above

[3] = target: T3, recombinant mouse Galectin-9 (mouse, UniProt O08573-2 1-322, limits assumed); assay: binding to recombinant mouse Gal-9, OD read-out over antibody concentration (nM); table under the curves
T3 construct: also called mGal9M; mouse Gal9
T3 sequence (O08573 other isoform, or with tags, fused parts or gaps limits assumed): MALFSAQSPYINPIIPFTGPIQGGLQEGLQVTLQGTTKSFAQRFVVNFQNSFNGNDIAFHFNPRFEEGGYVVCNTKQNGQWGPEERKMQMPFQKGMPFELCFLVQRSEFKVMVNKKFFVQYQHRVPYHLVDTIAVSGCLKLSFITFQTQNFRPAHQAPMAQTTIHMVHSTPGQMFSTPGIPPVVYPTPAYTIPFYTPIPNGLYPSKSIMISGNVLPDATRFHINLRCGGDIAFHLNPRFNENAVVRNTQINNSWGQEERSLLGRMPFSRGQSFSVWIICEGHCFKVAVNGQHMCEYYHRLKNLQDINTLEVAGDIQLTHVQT

[4] = target: T1, Gal9 (Galectin-9) as used in Examples 3 …; assay: Tim3 blocking Assay: binding (%) of Gal9 to TIM3 over antibody concentration; ambiguous fit marked '~', R2 printed 0,9819; no unit in the table, nM from the axis 'Antibody [nM]'
[5] = target: T1, Gal9 (Galectin-9) as used in Examples 3 …; assay: Tim3 blocking Assay: binding (%) of Gal9 to TIM3 over antibody concentration; ambiguous fit marked '~', R2 printed 0,8078; no unit in the table, nM from the axis 'Antibody [nM]'
[6] = target: T1, Gal9 (Galectin-9) as used in Examples 3 …; assay: CD44 blocking Assay: binding (%) of Gal9 to CD44 over antibody concentration; ambiguous fit marked '~', R2 printed 0,7386; no unit in the table, nM from the axis 'Antibody [nM]'
[7] = target: T1, Gal9 (Galectin-9) as used in Examples 3 …; assay: Tim3 blocking Assay: binding (%) of Gal9 to TIM3 over antibody concentration; ambiguous fit marked '~', R2 printed 0,8826; no unit in the table, nM from the axis 'Antibody [nM]'
[8] = target: T1, Gal9 (Galectin-9) as used in Examples 3 …; assay: CD44 blocking Assay: binding (%) of Gal9 to CD44 over antibody concentration; very poor fit, R2 printed 0,07344; no unit in the table, nM from the axis 'Antibody [nM]'
[9] = target: T1, Gal9 (Galectin-9) as used in Examples 3 …; assay: Tim3 blocking Assay: binding (%) of Gal9 to TIM3 over antibody concentration; R2 printed 0,9756; no unit in the table, nM from the axis 'Antibody [nM]'
[10] = target: T2, recombinant human Galectin-9; assay: BLI (Octet)
Procedure: (§1) Antibody binding affinity was measured using the commercially available Octet system from ForteBio (Creative Biolabs). According to the Creative Biolabs description, the Octet platform is based on bio-layer interferometry (BLI) technology that utilizes a whole set of system including instruments, biosensors, reagents and assay kits to support the evaluation of biomolecular interactions in 96- or 384-well microplates. Octet system uses Dip-and-Read assay mode to avoid the need of microfluidics, and enables the real-time, label-free analysis of affinity as well as kinetics. There are three biosensor-based assay orientations that can be used to explore antibody interaction: tandem blocking, premix blocking and classical sandwich. Compared to Biacore, Octet's dip-and-read assay allows longer analyte-binding steps and […] the rebinding of analyte to the ligand-coated sensors. Meanwhile, faster association time consumes less sample, which saves your precious proteins.

[11] = target: T3, recombinant mouse Galectin-9; assay: BLI (Octet)
Procedure: as §1

[12] = target: T1, Gal9 (Galectin-9) as used in Examples 3 …; assay: Tim3 blocking Assay: binding (%) of Gal9 to TIM3 over antibody concentration; R2 printed 0,9960; no unit in the table, nM from the axis 'Antibody [nM]'
[13] = target: T1, Gal9 (Galectin-9) as used in Examples 3 …; assay: CD44 blocking Assay: binding (%) of Gal9 to CD44 over antibody concentration; ambiguous fit marked '~', R2 printed 0,9720; no unit in the table, nM from the axis 'Antibody [nM]'
[14] = target: T1, Gal9 (Galectin-9) as used in Examples 3 …; assay: CD44 blocking Assay: binding (%) of Gal9 to CD44 over antibody concentration; R2 printed 0,9790; no unit in the table, nM from the axis 'Antibody [nM]'
[15] = target: T1, Gal9 (Galectin-9) as used in Examples 3 …; assay: Tim3 blocking Assay: binding (%) of Gal9 to TIM3 over antibody concentration; R2 printed 0,9956; no unit in the table, nM from the axis 'Antibody [nM]'

B1: HFB9-1hz2-hG1AA (antibody, human IgG1, V domains shown)
VH: QVQLVQSGAEVKKPGSSVKVSCKASGYTFTDYTIHWVRQAPGQGLEWMGWFYPGSHSIKYAQKFQGRVTITADKSTSTAYMELSSLRSEDTAVYFCTRHGGYDGFDYWGQGTLVTVSS
VL: DIVMTQSPDSLAVSLGERATINCKSSQSLFYSTNQKNYLAWYQQKPGQPPKLLIYWASTRESGVPDRFSGSGSGTDFTLTISSLQAEDVAVYYCQQYYYFPYTFGQGTKLEIK
notes: Humanized variant of HFB9-1
- IC50 [1]: ~63.1 nM
- EC50 [2]: 0.15 nM
- EC50 [3]: 0.828 nM
- IC50 [4]: ~59.8 nM

B3: HFB9-1hz1-hG1AA (antibody, human IgG1, V domains shown)
VH: B1 VH with S16A, I70M, K74T, T76I, S85R, E89D
VL: B1 VL
notes: Humanized variant of HFB9-1
- IC50 [5]: ~52.1 nM
- EC50 [2]: 0.153 nM
- IC50 [6]: ~255 nM

B5: HFB9-2hz13-hG1AA (antibody, human IgG1, V domains shown)
VH: QVQLVQSGAEVKKPGASVKVSCKASGYTFTEYTIHWVRQAPGQGLEWMGWFYPGSGSTEYAQKFQGRVTMTADTSTSTVYMELSSLRSEDTAVYYCERHGGYDGFDYWGQGTTVTVSS
VL: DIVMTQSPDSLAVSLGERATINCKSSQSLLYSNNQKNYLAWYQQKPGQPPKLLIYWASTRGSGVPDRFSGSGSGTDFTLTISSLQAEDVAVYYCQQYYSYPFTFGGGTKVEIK
notes: Humanized variant of HFB9-2
- IC50 [9]: 51.4 nM
- EC50 [2]: 0.128 nM
- EC50 [3]: 0.496 nM

Results, then the binder that gave them:

- EC50 [2]: 1.84 nM
B2: HFB9-1hz4-hG1AA (antibody, V domains shown)
VH: B1 VH with F95Y, T97A
VL: B1 VL
notes: humanized variant of HFB9-1

- EC50 [2]: 0.142 nM
- IC50 [7]: ~183 nM
- EC50 [3]: 0.98 nM
- IC50 [8]: 0.0616 nM
B4: HFB9-1hz3-hG1AA (antibody, human IgG1, V domains shown)
VH: B1 VH with F95Y
VL: B1 VL
notes: Humanized variant of HFB9-1

- EC50 [2]: 0.57 nM
B6: HFB9-2hz12-hG1AA (antibody, V domains shown)
VH: B5 VH with A16S, T58A, M70I, T74E, V79A
VL: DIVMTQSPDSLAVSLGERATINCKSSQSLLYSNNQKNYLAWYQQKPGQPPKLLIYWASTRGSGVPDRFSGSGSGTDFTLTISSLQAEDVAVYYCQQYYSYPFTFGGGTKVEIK
notes: humanized variant of HFB9-2

- Kd [10]: 4.84 nM and 1.96 nM
- koff [10]: 0.000352 s⁻¹ and 0.000179 s⁻¹
- kon [10]: 72800 M⁻¹ s⁻¹ and 91400 M⁻¹ s⁻¹
- koff [11]: 0.000462 s⁻¹ and 0.000606 s⁻¹
- kon [11]: 402000 M⁻¹ s⁻¹ and 166000 M⁻¹ s⁻¹
- IC50 [12]: 25.3 nM
- IC50 [13]: ~39.6 nM
- EC50 [2]: 0.117 nM
- EC50 [3]: 0.533 nM
B7: HFB9-2hz11-hG1AA (antibody, IgG1, V domains shown)
VH: B5 VH with T76I, V79A, S85R, E89D, Y95F
VL: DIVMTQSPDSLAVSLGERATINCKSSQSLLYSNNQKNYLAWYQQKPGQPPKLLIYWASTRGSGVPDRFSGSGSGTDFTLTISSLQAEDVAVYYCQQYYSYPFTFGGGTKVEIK
notes: Humanized variant of HFB9-2; also called HFB9-2hz11-hG1AA MF20191024

- IC50 [14]: 48.7 nM
- EC50 [2]: 0.144 nM
- IC50 [15]: 37.1 nM
B8: HFB9-2hz14-hG1AA (antibody, human IgG1, V domains shown)
VH: EVQLVQSGAEVKKPGESLKISCKGSGYTFTEYTIHWVRQMPGKGLEWMGWFYPGSGSTEYSPSFQGQVTISADKSISTAYLQWSSLKASDTAMYYCERHGGYDGFDYWGQGTTVTVSS
VL: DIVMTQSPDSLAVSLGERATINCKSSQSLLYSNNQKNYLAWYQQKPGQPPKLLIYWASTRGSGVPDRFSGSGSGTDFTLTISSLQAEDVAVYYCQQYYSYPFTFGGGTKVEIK
notes: Humanized variant of HFB9-2; also called 2h14
